Literature values in article PMC7522120.

Target: Folate receptor alpha (Homo sapiens) (UniProt P15328)
Sequence (P15328 25-234): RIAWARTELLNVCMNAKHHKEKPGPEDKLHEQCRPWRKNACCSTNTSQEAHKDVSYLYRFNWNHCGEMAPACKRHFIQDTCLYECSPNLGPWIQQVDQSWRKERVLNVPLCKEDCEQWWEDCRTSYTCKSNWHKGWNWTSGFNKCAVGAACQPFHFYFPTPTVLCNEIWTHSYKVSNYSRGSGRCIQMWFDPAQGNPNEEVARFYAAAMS

Kd: 2 nM
Substance: farletuzumab
